3 molecules from patent publication US20040018971A1 (published 2004) can be followed below.

One experiment deals with HLA-DR3 (human). In words: competitive inhibition of 125I-labeled probe peptide binding to purified HLA-DR3.
Experiment [1] addresses HLA-A*3301 (purified HLA class I molecule) (human). The experiment can be described thus: inhibition of 125I probe peptide binding to purified HLA; ratio to standard peptide; minus sign not explained.
In experiment [2] the target is HLA-A*1101 (purified HLA class I molecule) (human). The experiment can be described thus: inhibition of 125I probe peptide binding to purified HLA; ratio to standard peptide.
The target in experiment [3] is HLA-A*6801 (purified HLA class I molecule) (human). Described as above.
For experiment [4], the target named is T1, HLA-A*0301 (purified HLA class I molecule) (human).
T1 construct: also called A3
Described as above.

Experiment [5] concerns the target HLA-A*3101 (purified HLA class I molecule) (human). Described as above.
A further experiment has as its target T2, HLA-A*3101 (human).
T2 construct: The construct is not described
In words: competition with 125I-labelled standard peptide for purified HLA, gel filtration.

A further experiment has as its target T3, HLA-A*3301 (human).
T3 construct: The construct is not described
The experiment is described as above.

A further experiment deals with T4, HLA-A*6801 (human).
T4 construct: The construct is not described
The experiment is described as above.

Another experiment addresses T5, HLA-A*0301 (human).
T5 construct: also called A3
The experiment is described as above.

In another experiment the target is T6, HLA-A*1101 (human).
T6 construct: The construct is not described
The experiment is described as above.

B1: Her2/neu.867 (peptide)
peptide: ARLLDIDETEYHADG
In the case of B1, in the experiment with HLA-DR3, the half-maximal inhibitory concentration (IC50) (commonly the concentration at which inhibition is half-maximal) is under 1000 nM.

B2: HER2/neu peptide, position 727, 10 amino acids (peptide)
peptide: GSGAFGTVYK
notes: also called Her2/neu.727 (10-mer)
B2: the relative binding ratio in [1] was -0.0013 ratio (IC50 standard / IC50 test); in experiment [2] it was 0.13 ratio (IC50 standard / IC50 test); in experiment [3], 0.0012 ratio (IC50 standard / IC50 test); in experiment [4], 0.066 ratio (IC50 standard / IC50 test); in experiment [5], 0.0014 ratio (IC50 standard / IC50 test).

B3: HER2/neu peptide, position 322, 9 amino acids (peptide)
peptide: VTAEDGTQR
notes: Synthetic peptide; also called Her2/neu.322 (9-mer)
Consider B3, for which the relative binding ratio was 0.0011 ratio (IC50 of standard peptide / IC50 of test peptide) with HLA-A*3101; 0.0037 ratio (IC50 of standard peptide / IC50 of test peptide) in the experiment with HLA-A*3301; 0.1 ratio (IC50 of standard peptide / IC50 of test peptide) with HLA-A*6801; 0.0002 ratio (IC50 of standard peptide / IC50 of test peptide) with HLA-A*0301; 0.014 ratio (IC50 of standard peptide / IC50 of test peptide) with HLA-A*1101.
